From US20070014736A1, “Methods of delivering corticotroph-derived glycoprotein hormone” (priority 2005, published 2007)

How the values were obtained:
[1] = tested on: adrenal glands; experiment: Intraperitoneal recombinant CGH for two weeks, adrenal weight; assay type: in vivo, mice; conditions: 0.25 mg/kg CGH i.p. daily, day 15, female C57BL/6
Description: Summary: Mice were exposed to CGH through infection with adenovirus particles expressing GPHA2 and GPHB5, leading to overexpression and secretion of CGH from the liver of these animals. […] The hypertrophy was apparent in the inner cortical layers, the zona fasciculata and the zona reticularis. Similarly, mice were exposed to CGH through intraperitoneal injection of recombinant CGH protein alone, recombinant CGH protein along with the glucocorticoid Dexamethasone (Dex), Dex alone, or PBS alone daily for two weeks.
Sixteen C57BL/6 female mice at 8 weeks of age were separated into four groups. The first group received daily injections of 0.25 mg/kg of recombinant CGH protein intraperitoneally. The second group received daily injections of PBS using the same procedure. The third group received daily injections of 0.25 mg/kg of CGH plus 0.05 mg/kg Dex and the final group received 0.5 mg/kg Dex, alone. Animals were sacrificed on day 15 and the adrenal glands were isolated and weighed. Example 5 describes the expression and purification of recombinant CGH protein used in this experiment.

[2] = tested on: Delayed Type Hypersensitivity (DTH) reaction; experiment: Delayed Type Hypersensitivity (DTH), change in ear thickness; assay type: in vivo, mice
[3] = tested on: neutrophil infiltration in the ears; experiment: Neutrophil (Gr-1) histomorphometry of ears in DTH experiment #1; assay type: in vivo, mice
Experimental: Ears from mice in DTH experiment #1 were analyzed by immunohistochemistry to assess which cell types were most affected by CGH treatment. Ears were fixed in Zinc/Tris buffer (2.3 mM calcium acetate/31.6 mM zinc acetate/36.7 mM zinc chloride in 0.1M Tris-HCL buffer, pH 7.4) for 24 hours at room temperature and stained with antibodies specific for CD4, CD8, CD11c, and Gr-1 (neutrophils). […] Ears were stained using a TechMate 500 autoimmunostainer (Biotech/Ventana) MIP protocol with some modifications. […] This step was followed, after a wash, by biotinylated rabbit anti-rat IgG secondary antibody (Dako, used at 10 ug/ml in PBS with 2% normal rabbit serum and 2% nonfat dry milk) for 45 min. The sections were then washed and treated with HP Block (1.5% H2O2 in 50% methanol) 3 times, 7 min each, followed by 25 min in avidin-biotin complex, 3 times of 4 min each in DAB (Diaminobenzidine), then with Methyl green for 10 min.
From this staining procedure, there was a clear reduction in the number of neutrophils infiltrating the ears of those mice treated with CGH or Dex, compared to the PBS-treated controls. Histomorphometry was performed to obtain the average pixel density of neutrophils per unit length (1 mm) present in the ear samples. Despite a fair amount of variability among each group, there was a significant reduction in neutrophil staining in the Dex and low dose CGH groups, as well as a nearly significant (p=0.0507) reduction in the high dose CGH group (see TABLE 5, p values).

[4] = tested on: lipolysis in mice; experiment: Stimulation of lipolysis in vivo, serum glycerol and FFA; conditions: fasted mice, IP; CGH 300 μg/kg, CL 1 mg/kg
Experimental: CGH, the β3-adrenoreceptor agonist CL 316,243 (CL), and saline vehicle were examined for stimulation of lipolysis in mice following an overnight fast. […] Lipolysis was assessed as the percent change in serum glycerol or FFA over the 2 hour period. The serum glycerol and FFA for the vehicle groups decreased by 7%±9% and 24%±15%, respectively. The serum glycerol for the CGH group increased by 57%±20%; p=0.0254, and the FFA levels increased 25%±5%; p=0.0188.
C57 BL/6 male mice, age 19 weeks, were grouped to normalize weight (n=4 for each treatment; average group weight=37.8 g±0.4 g). Mice were housed individually for 18 hours prior to treatment, at which time food was withdrawn, with free access to water given. At approximately 8 a.m., the subjects were anesthetized with halothane and blood samples taken by retro-orbital eye bleed. The blood was allowed to clot, and the serum was separated by centrifugation and frozen for later analysis. Test substances were administered by IP injection in a volume of 0.1 ml, and the animals replaced in their cages for 2 hours with free access to water. At 2 hours, the mice were sacrificed and blood drawn by cardiac puncture.
For measuring free fatty acids in serum, the method previously described for measuring free fatty acids in conditioned media was followed, with the following modifications. Wako reagents A and B were reconstituted to 2× the recommended concentration. 75 μl of Wako reagent A were added to 5 μl of oleic acid standard plus 5 μl of water. 75 μl of Wako reagent A were added to 5 μl of serum plus 5 μl of methanol (to mirror the oleic acid standard conditions). The 96-well plates were incubated at 37° C. for 10 minutes. 150 μl of Wako reagent B were added to each well. The 96-well plates were incubated at 37° C. for 10 minutes. The 96-well plates were allowed to sit at room temperature for 5 minutes. The 96-well plates were centrifuged in a Beckman Coulter Allegra 6R centrifuge at 3250×g for 5 minutes to remove air bubbles. The absorbance at 530 nm was measured on the Wallac Victor2 Multilabel counter.
For measuring glycerol in serum, the method previously described for measuring glycerol in conditioned media was followed, with the modifications described below.
Sigma reagent A was reconstituted to 0.5× the recommended concentration. 200 μl of Sigma reagent A were added to 10 μl of glycerol standard. 200 μl of Sigma reagent A were added to 5 μl of serum plus 5 μI of water. The 96-well plates were incubated for 15 minutes at room temperature. The 96-well plates were centrifuged in a Beckman Coulter Allegra 6R centrifuge at 3250×g for 5 minutes to remove air bubbles. The absorbance at 530 nm was measured on the Wallac Victor2 Multilabel counter.

[5] = Expt 1, 0.2 mg/kg CGH i.p. at challenge (d7), 24 h
[6] = Expt 1, 2.0 mg/kg CGH i.p. at challenge (d7), 24 h
[7] = Expt 2, 0.2 mg/kg CGH i.p. at challenge (d7)
[8] = Expt 2, 2.0 mg/kg CGH i.p. at challenge (d7)
[9] = Expt 3, 0.2 mg/kg CGH i.p. at sensitization (d0-4)
[10] = Expt 3, 2.0 mg/kg CGH i.p. at sensitization (d0-4)
[11] = 0.2 mg/kg CGH i.p. at challenge (day 7)
[12] = 2 mg/kg CGH i.p. at challenge (day 7)

B1: CGH: heterodimeric protein hormone comprised of alpha subunit GPHA2 and beta subunit GPHB5, recombinantly produced in CHO cells (protein)
chain 1: QEAVIPGCHLHPFNVTVRSDRQGTCQGSHVAQACVGHCESSAFPSRYSVLVASGYRHNITSVSQCCTISGLKKVKVQLQCVGSRREELEIFTARACQCDMCRLSRY
chain 2: ASSGNLRTFVGCAVREFTFLAKKPGCRGLRITTDACWGRCETWEKPILEPPYIEAHHRVCTYNETKQVTVKLPNCAPGVDPFYTYPVAIRCDCGACSTATTECETI
- Average adrenal weight/100 g body weight [1]: 22.26 +/− 0.99
- Change in ear thickness, left ear (PBS) [2, 5]: 0.17 +/− 0.95 ×10^−3 inch
- Change in ear thickness, right ear (OVA) [2, 5]: 3.48 +/− 0.79 ×10^−3 inch
- Change in ear thickness, left ear (PBS) [2, 6]: 0.21 +/− 0.34 ×10^−3 inch
- Change in ear thickness, right ear (OVA) [2, 6]: 2.48 +/− 1.05 ×10^−3 inch
- Change in ear thickness, left ear (PBS) [2, 7]: 0.65 +/− 0.63 ×10^−3 inch
- Change in ear thickness, right ear (OVA) [2, 7]: 4.41 +/− 0.95 ×10^−3 inch
- Change in ear thickness, left ear (PBS) [2, 8]: 0.67 +/− 1.05 ×10^−3 inch
- Change in ear thickness, right ear (OVA) [2, 8]: 3.92 +/− 1.00 ×10^−3 inch
- Change in ear thickness, left ear (PBS) [2, 9]: 1.31 +/− 0.42 ×10^−3 inch
- Change in ear thickness, right ear (OVA) [2, 9]: 4.06 +/− 0.73 ×10^−3 inch
- Change in ear thickness, left ear (PBS) [2, 10]: 1.11 +/− 0.49 ×10^−3 inch
- Change in ear thickness, right ear (OVA) [2, 10]: 4.57 +/− 1.58 ×10^−3 inch
- Pixel density: Neutrophils, left ear (PBS) [3, 11]: 544 +/− 1044
- Pixel density: Neutrophils, right ear (OVA) [3, 11]: 5605 +/− 3725
- Pixel density: Neutrophils, left ear (PBS) [3, 12]: 273 +/− 399
- Pixel density: Neutrophils, right ear (OVA) [3, 12]: 5535 +/− 5331
- percent change (increase) in serum FFA over 2 hours [4]: 25%±5%
- percent change (increase) in serum glycerol over 2 hours [4]: 57%±20%
